For assay [1], the target named is SF370 bacterial surface (Streptococcus pyogenes strain SF370 (emm1 serotype)). The assay is described as follows: binding to SF370 bacteria, fitted binding curve; unit printed nM-1; ±261; non-specific control IgG (Fc binding).
Assay [2] concerns the target T1, M1 protein on the surface of Streptococcus pyogenes strain SF370 (Streptococcus pyogenes strain SF370 …).
T1 chain: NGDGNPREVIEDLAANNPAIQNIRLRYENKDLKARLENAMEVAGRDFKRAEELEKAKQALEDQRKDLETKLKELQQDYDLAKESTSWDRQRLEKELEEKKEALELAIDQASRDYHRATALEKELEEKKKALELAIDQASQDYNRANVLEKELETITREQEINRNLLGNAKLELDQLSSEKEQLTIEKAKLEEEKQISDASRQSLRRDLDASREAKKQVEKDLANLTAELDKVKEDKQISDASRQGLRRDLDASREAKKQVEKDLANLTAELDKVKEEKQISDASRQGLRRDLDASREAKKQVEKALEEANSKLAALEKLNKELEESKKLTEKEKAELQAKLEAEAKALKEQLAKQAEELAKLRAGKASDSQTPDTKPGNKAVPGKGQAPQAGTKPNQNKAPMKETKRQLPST
The assay is described as follows: binding to SF370 bacteria, fitted binding curve; unit printed nM-1; ±2.9; F(ab')2.

In assay [3] the target is T1, M1 protein on the surface of …. As to the kind of experiment: binding to SF370 bacteria, fitted binding curve; unit printed nM-1; ±30.3; Fab.
Assay [4] has the same target. As to the kind of experiment: binding to SF370 bacteria, fitted binding curve; unit printed nM-1; ±1.2; F(ab')2.
The target is the same in assay [5]. The assay is described as above.

What is called Kd is a measure of binding affinity in units of concentration. For Xolair IgG, in assay [1], the Kd was determined as 3170 nM.

B1: Ab32 F(ab')2 fragments (IdeS-cleaved Ab32) (antibody, V domains shown)
VH: EVQLVESGGGLVRPGGSLRLSCVASGFMFNEYYMSWIRQAPGKGLEWISFISNAGTYTNYAESVKGRFTISRDNAKDSLYLEMNSLRGEDTAVYYCARQGFDTRGEDAFEIWGQGTMVTVSS
VL: EIVLTQSPATLSLSPGERATLSCRASQPLSGYLAWYQQKPGQAPRLLIYNASKRATGIPARFTGSGSGTDFTLTISSLESEDFAVYYCQQRSGWPSIFTFGPGTKVDIKR
Take B1: in assay [2], binding was characterised by a dissociation constant (Kd) of 9.1 nM.

B2: Ab49 single Fabs (IgdE-cleaved Ab49) (Fab, V domains shown)
VH: EVQLVESGGGLVQPGGSLRLSCAASGFTVSINYMSWVRQAPGKGLQWVSVIYSGGSTYYADSVKGRFTISRDNSKNTLYLQMNSLRAEDTAMYYCVRDSRFWGIFDYWGQGTLVTVSS
VL: EIVLTQSPATLSLSPGERATLSCRASQSVSSYLAWYQRKPGQAPRLLIYDASNRATGIPARFSGSGSGTDFTLTISSLEPEDFAVYYCQQRSNWPPTFGQGTKVEIKR
B2 had a Kd in assay [3] of 208 nM.

B3: Ab49 F(ab')2 fragments (IdeS-cleaved Ab49) (antibody, V domains shown)
VH: EVQLVESGGGLVQPGGSLRLSCAASGFTVSINYMSWVRQAPGKGLQWVSVIYSGGSTYYADSVKGRFTISRDNSKNTLYLQMNSLRAEDTAMYYCVRDSRFWGIFDYWGQGTLVTVSS
VL: EIVLTQSPATLSLSPGERATLSCRASQSVSSYLAWYQRKPGQAPRLLIYDASNRATGIPARFSGSGSGTDFTLTISSLEPEDFAVYYCQQRSNWPPTFGQGTKVEIKR
Regarding B3, the Kd in assay [4] and in assay [5] was 12.3 nM each time.
